How the values were obtained:
[1] = molecular target: VDAC1 on intact mitochondria purified from NSC34 cells (mouse (NSC34 cell line)) (UniProt Q60932); experiment: competition with SOD1-G93A on intact NSC34 mitochondria, fractionation, immunoblot
[2] = molecular target: human VDAC1, recombinant, C-terminal His-tag, refolded in LDAO (human) (UniProt P21796); experiment: competition pull-down on VDAC1-coated magnetic beads (30 uM VDAC1, 6.5 uM SOD1-G93A), anti-SOD1 immunoblot
Sequence of UniProt P21796 (P21796 other isoform, or with tags, fused parts or gaps limits assumed): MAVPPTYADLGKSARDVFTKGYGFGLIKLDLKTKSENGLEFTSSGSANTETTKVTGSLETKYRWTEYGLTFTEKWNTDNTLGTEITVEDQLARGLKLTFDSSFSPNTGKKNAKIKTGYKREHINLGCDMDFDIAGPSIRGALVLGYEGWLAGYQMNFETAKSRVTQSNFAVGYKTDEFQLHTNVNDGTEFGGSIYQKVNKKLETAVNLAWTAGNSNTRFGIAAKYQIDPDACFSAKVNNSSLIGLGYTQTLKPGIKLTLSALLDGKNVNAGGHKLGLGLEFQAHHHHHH

Sequence of UniProt Q60932 (Q60932 whole entry): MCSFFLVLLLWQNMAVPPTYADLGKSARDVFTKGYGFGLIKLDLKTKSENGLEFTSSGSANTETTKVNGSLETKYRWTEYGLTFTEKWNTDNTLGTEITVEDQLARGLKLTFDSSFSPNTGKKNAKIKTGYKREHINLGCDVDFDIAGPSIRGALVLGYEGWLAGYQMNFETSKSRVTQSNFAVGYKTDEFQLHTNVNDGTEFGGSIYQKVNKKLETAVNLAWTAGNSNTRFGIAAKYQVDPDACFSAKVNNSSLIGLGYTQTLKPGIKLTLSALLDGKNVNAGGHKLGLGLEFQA

- percent decrease of SOD1-G93A bound to mitochondria at 60 µM NHK1 [1]: 90%
- percent reduction of SOD1-G93A bound to VDAC1 at 10 µM NHK1 [2]: 40%
- percent reduction of SOD1-G93A bound to VDAC1 at 25 µM NHK1 [2]: 80%
Binder: IAAQLLAYYFT [synthetic peptide NHK1]
